Results published in article PMC12110046.

Key:
[1] = biological target: eel LH/CGR-N312Q (eel)
[2] = biological target: eel lutropin/chorionic gonadotropin receptor, wild type (eel)
[3] = biological target: eel LH/CGR-N201Q (eel)
[4] = biological target: eel LH/CGR-N306Q (eel)
[5] = biological target: eel LH/CGR-N49Q (eel)
[6] = biological target: eel LH/CGR-N312Q (eel); remark: listed apart in the source
[7] = biological target: eel lutropin/chorionic gonadotropin receptor, wild type (eel); remark: listed apart in the source
[8] = biological target: eel LH/CGR-N306Q (eel); remark: listed apart in the source
[9] = biological target: eel LH/CGR-N49Q (eel); remark: listed apart in the source

Substance: recombinant eel LH (ligand)
- pERK1/2 activity (HTRF), transfected HEK-293 cells, rec-eel LH 250 ng/mL for 0-30 min; peak at 5 min, fold over the basal response of LH/CGR-wt [1]: 3.7 fold
- pERK1/2 activity (HTRF), transfected HEK-293 cells, rec-eel LH 250 ng/mL for 0-30 min; peak at 5 min, fold over the basal response [2]: 3.97 fold
- pERK1/2 activity (HTRF), transfected HEK-293 cells, rec-eel LH 250 ng/mL for 0-30 min; peak at 5 min, fold over the basal response of LH/CGR-wt [3]: 2.6 fold
- pERK1/2 activity (HTRF), transfected HEK-293 cells, rec-eel LH 250 ng/mL for 0-30 min; peak at 5 min, fold over the basal response of LH/CGR-wt [4]: 3.1 fold
- pERK1/2 activity (HTRF), transfected HEK-293 cells, rec-eel LH 250 ng/mL for 0-30 min; peak at 5 min, fold over the basal response of LH/CGR-wt [5]: 3.3 fold
- EC50 of the cAMP response (HTRF), transfected CHO-K1 cells, rec-eel LH for 30 min [6]: 0.235 µg/mL
- EC50 of the cAMP response (HTRF), transfected CHO-K1 cells, rec-eel LH for 30 min [7]: 0.19 µg/mL
- EC50 of the cAMP response (HTRF), transfected CHO-K1 cells, rec-eel LH for 30 min [8]: 0.233 µg/mL
- EC50 of the cAMP response (HTRF), transfected CHO-K1 cells, rec-eel LH for 30 min [9]: 0.215 µg/mL
